Reference: a protein production outcome set (Wang et al. 2014)

Experiment: label from the status in PepcDB records

Sequence	protein production
MSLSKDNIWKLLAPLVVMGVMLLIPVPDGMPPQAWHYFAVFVAMIVGMILEPIPATAISFIAVTICVIGSNYLLFDASELADPAFKASKQALKWGLAGFSSTTVWLVFGAFIFALGYEVTGLGRRIALFLVKFMGKRTLTLGYAIVIIDILLAPFTPSNTARTGGTVFPVIKNLPPLFKSFPNDPSARRIGGYLMWMMVISTSLSSSMFVTGAAPNVLGLEFVSKIAGVQISWLQWFLSFLPVGIILLIVAPWLSYVLYKPEVTHSAEVAAWAGGELKNMGRLSRKEWTLIGLVLLSLGLWVFGGKIINATAVGLLAVSLMLALHVVPWKDITRYNSAWNTLVNLATLVVMANGLTRSGFIDWFANTMSTHLEGFSPDATVIVLVLVLVLVLVLVLVLVLVLVLVLVLVLVFYFAHYLFASLSAHTATMLPVILAVGKGIPGVPMEQLCILLVLSIGIMGCLTPYATGPGVIIYGCGYVKSRDYWRLGAIFGVIYIAMLLLVGWPILAMWN	failed
MSLHDFTLADVYRRNAALFPDRTAFMVDGVRLTHRDYLARAERLASGLLRDGVHTGDRVAILSQNCSEMIELIGAVALIGAILLPVNYRLNADEIAFVLGDGAPSVVVAGTDYRDIVAGVLPSLGGVKKAYAIGDGSGPFAPFKDLASDTPFSAPEFGAADGFVIIHTAAVGGRPRGALISQGNLLIAQSSLVDAWRLTEADVNLGMLPLFHVTGLGLMLTLQQAGGASVIAAKFDPAQAARDIEAHKVTVMAEFAPMLGNILDQAAPAQLASLRAVTGLDTPETIERFEATCPNATFWATFGQSETSGLSTFAPYRDRPKSAGRPLFWRTVAVVDAEDRPLPPGEVGEIVLRGPTVFKGYWNNAAATQHAFRNGWHHTGDMGRFDADGYLFYAGRAPEKELIKTGGENVYPAEVEGALKQHPAIADAVVIGVPDPQWSEAIKAVCVCKPGESIAADALAEFVASLIARYKKPKHVVFVEALPKDAKGAIDRAAVKTAHGQEGHHHHHH	not failed
MHISIKTLEGKRIKLEVEDSSNTIDLKIHGEPTRELVVDLSPTPDTGAIMMIFIKTLTGRTNTYEVKGSDTIRELKAKHEEKEGIPVEQQRLIFQGRISIKTVKGKSINLEVADSSDTIDLKINGEPTRQLVLRLGPAVLMRIFVSTIKEKTFILEVKGSDTIKKLKSMIHDQGGPPVDQQDLNHLGTKLKNNATISDYNIKPDANLVIMQNGCIC	failed
PKQRCRAPACDHFGNAKCNGYCNECFQFKQMYG	not failed
MPNRKASRNAYYFFVQEKIPELRRRGLPVARVADAIPYCSSDWALLREEEKEKYAEMAREWRAAQGKDPGPSEKQKPVFT	not failed
MAASSLATQPAMKLAPDDLDSITATTLGHYQQVAEDFREGTRDHDVSQNIDALLRHIQGSAPFTVLDFGCGPGRDLQAFTRLGHVAIGLDGCERFAQMAREDSGCEVWQQDFLKLDLPAERFDGIFANAVLFHIPRQELPRVLKQLHASLKDGGVLFSSNPRGDNQEGWNGPRYGAYHDLAAWQALLTDAGFVELEHYYRPAGLPREQQPWLASVWRKA	failed
MRPVGSKYLLEEPLGRGATGTVWRARQRETAGAEAAVAGQPGETVAIKVLKEELASDADIVMRFLRERSVLLRLTHPNIVRVRDLVVEGELLALVMDLIDGPDLHRYLRENGPLTPVAAALLTAQIADALAASHADGVVHRDLKPANVLLKQTGGEMHPMLTDFGIARLADSPGLTRTHEFVGTPAYVAPESAEGRPQTSAVDVYGAGILLYELVTGRPPFGGGSALEVLHQHLSAEPRRPSTVPDPLWTVIERCLRKNPDDRPSAENLARGLRVVAEGIGVHANSAQIGAAENVGALLAPDPAPAQVPGAPDAAYDPNGATSVLPHTSGPAGAADPTAVLPSTGAPDPTAVMPPVPPGQPGAPGQGGPEDPHPWQNQLRAARDRNEQTQVQYLDPNQDPLRRRPQRQVSRPPQQPRQAPQGPPPQQPGYGYPQQQQPQRYATPQPQQPQRYAPPPAPEPQQPRREPRPPRQRSANPMRIPGLGCLKGCLVTVVVLFVAGWLVWELSPLQEWIGTGKGYWDQLTDWFTTVTDWIGDLGGSGGG	failed
MSDAPVCERNPFLGMWSMVTRKTASGASLGAGQAITPLEAMRCYTANPARAEGQAARKGTLSPGKLADLIVLDRDPCAVDPDEIRHTQVLATLVGGQATYRAAGAPLEHHHHHH	failed
MPKKGSDPVWCVVMFDLPVKTKTQRKQATAFRQNLLDLGFCMAQLSVYVQYLPLAAKLSNLVKLIKEKLPPGGDVRILSVSDIQWSKMIRFSSSAEVSGEEKPDQLAIFLEHHHHHH	not failed
